Legend:
[1] = molecular target: the molecule itself; assay: SDS-PAGE of the folded channel
[2] = molecular target: the molecule itself; assay: crystal structure

Protein | stoichiometry N [1] | binding result [2]
KcsA V76ester channel (semisynthetic, full length) (natural protein, UniProt P0A334 1-160, looked up, peptide bond between residues 75 and 76 (Thr75-Val76, the 4' amide bond) replaced with an ester linkage) MPPMLSGLLARLVKLLLGRHGSALHWRAAGAATVLLVIVLLAGSYLAVLAERGAPGAQLITYPRALWWACETATTVGYGDLCPVTLWGRLVAVVVMVAGITSFGLVTAALATWFVGREQERRGHFVRHSEKAAEEAYTRTTRALHERFDRLERMLDDNRR | 4 | 
KcsA V76ester channel, truncated for crystallization (domain or fragment, UniProt P0A334 1-125, looked up, peptide bond between residues 75 and 76 (Thr75-Val76, the 4' amide bond) replaced with an ester linkage) MPPMLSGLLARLVKLLLGRHGSALHWRAAGAATVLLVIVLLAGSYLAVLAERGAPGAQLITYPRALWWACETATTVGYGDLCPVTLWGRLVAVVVMVAGITSFGLVTAALATWFVGREQERRGHF |  | binds

From publication PMC4876015 (Structure (London, England : 1993), 2016)
